This data set can be described thus: label from the status in PepcDB records.
On to “MKCKRLNEVIELLQPAWQKEPDLNLLQFLQKLAKESGFDGELADLTDDILIYHLKMRDSAKDAVIPGLQKDYEEDFKTALLRARGVIKE”, for which the protein production result was “failed”. Take “MSGSEYSEVDVNEGDSIWALADQYAAKSDMAKADFVSWVEKENNLTDGHVKAGDYVVIPVHETKLQRSDSTIQLANQLEHHHHHH”: the protein production entry was “not failed”.

As to “NLDPQRVEQEMILLAQRIDVAEELDRLQMHVKETTNILKKGGAVGRKLDFMMQELNRESNTLASKSINADITASAVELKVLIEQMREQIQNLE”, the protein production result is “failed”. Consider “MFDRLKTMLIKEAIQILRDPKMRFIILVIPAIQITLFGYAVNTDVKHIATAVYDLDNSALSRDLVARLERSGYFDIVQRVQRGDELRDLLDRGKVRAAVQINRGFEENIRAGRTATLPIIVDGTDPSTARIVVSYSVTIAERFSDQILTDYSLRKSGRTTGGNGIELESRAWFNANLESRNYYVPGVIASMVLITTMMLSSMAVVREKEIGTMEQIIVTPIQRWEFIVGKLVPFAIVGYINVTIVTCIALFWFKIPLRGSILLLIGSTALFLMSTLGFGLLISTISRTQQQAMMSSFMFTFPAMLLSGFAFPIENMPTSIQYATYLNPLRYYLVIVRGIFLKGIGLGILWPQLAALALLGSVVLLFAVGRFKKSVG”, for which the protein production result is given as “failed”.

“MKLALITDTSAYLPEAIENHEDVYVLDIPIIIDGKTYIEGQNLTLDQYYDKLAASKELPKTSQPSLAELDDLLCQLEKEGYTHVLGLFIAAGISGFWQNIQFLIEEHPNLTIAFPDTKITSAPQGNLVRNALMCSREGMDFDVIVNKIQSQIEKIEGFIVVNDLNHLVKGGRLSNGSAIIGNLLSIKPVLHFNEEGKIVVYEKVRTEKKALKRLAEIVKEMTADGEYDIAIIHSRAQDKAEQLYNLLAKAGLKDDLEIVSFGGVIATHLGEGAVAFGITPKN”: the protein production result is given as “not failed”. For “MRIDLSVPKVGAELELNKVLGKGSSGSVSLIKYKSRLDGQTLYAAVKTSNIIHADSLLKEFQILSEFKGCSRIVQCYGTKVQETINEEGDVEFTIPMEYASGGSLRHFMSRFKDMKLPDALIRRFTRMILEGLAVIHGHGYVHCDLKPENILVFPSFELKISDFGLSKREGDSKWWLPSHPFAGTPVYMSPESISNGETRRGLDLWSLGCVVLEMYTGKRPWWDKNYDLGDLKKGSMPLISKDIPCDAKLFVMTCFASETNKRKNAFTLLRHCFLRGDVNKIIEPLVKSKNSNDIALELENIEHRLSQLRCISGG”, the protein production entry was “failed”. “MFNKLVFKNLKLKKLSTSLVVVASLLVAQAPFANYAEAAGAEKVEKKKKRPTQLVGPRVGKKVQKAFEAYSADDIKGALVILLDIEASKPYDKAYVSRMVAVMYATLGDNDQKTIEYLKKALEPDILNEVDQSESLKLLGDMQMQTKDYKGALKSFYAWMDFSGKDDGPTYVKIANAYYSLKQLDKVIEPADKAIAAFGDKPNQNPYILKITSYYERKMYKEAVKVLETVIQVFPENKQWWTQLPMFYLLIEDYDKAVQTLDLAYKLGHLDKESQIKTLASLYSQTEAPYKAAQLLEKYIASGLVKRDDKNISTLANAWHSAQHIDKAASYYGELAKMTSDAKHYRKQGMLLKQDEQFSKAIVALNKAIELGVSNQGRIHMSIAESYFYLEKYKKAYAAIQKAMKDPSARKSAKGWKSFIVDTARRKNVTI”: the protein production entry is “failed”.

For “VYTLMTTRSHDQYNTTLYGLDDRYRGVFGQRRVLFMNEQDIQEAGFQADQWVDIESIYSDGLKRIVRSFKIVPYNIPRGSMAAYYPETNPLVALSSHDKYAKIPASKSIPVILHPGQAPEHFNLAAPVDPEHANG”, the protein production result is “failed”. Turning to “MFDPKLLPATRKILDLPARLLVRVGVSADQVTITGFIIGLLAVPFLAFELYEFALAAILLNRLCDGLDGAVARRTQLTDAGGFLDIVLDFIFYSAVVFGFLLASPEQNAIASGLLLVTFMGTGSTFLAFACIAGKRGIENPEYPNKSLHYMGGLTEGFETILAFVAFCLWPQHFSVLAYIFAAACWLTAITRIVAGYRTLKQPGAKPESTNV”, the protein production entry was “not failed”. Regarding “MQTLREFTRKTKRGNILKIVREHYLRDDIGCGSELCRECFQNEVYQLTSQHANKSTLFKFPHYLVLDTNVVLDQIDVLEEDVLRNVVVLTTVLNEVKHRSSAIYKRFNEIVHDRTRNFYVFVNEHHKETYADREPDETANDRNDRAIRLATKWYDDHLQASQSSKEFERSGKAATRVVLLTDDAANRAKAEAEGILVTTAAEYVKSLEDFPLLMDKLSHKTFDSEKNGLPQYPPHLSMKELLEGLRQNKLLQGTFQASRENYLEGTVNVEKFEKGILIQGRESLNRAVDGDLVAVELLPEAEWSAPSEIVLEEKNVYADEVPSEERAKDENEMLNQVRAAALSAERTPTGRIVGIVRRKWRQYCGILQPSLIEDTNRHIFVPADRKIPRIRIETRQAAMLQNQRIIVTIDTWPRNSRYPHGHFVRSLGPLGDMATENEVILLEHDVPHCKFSDEVLSFLPKMPWTITDEDYSKRVDLRDLYICSVDPPGCTDIDDALHCKELPNGNLEVGVHIADVSHFIRPGNALDMEAAARGTTVYLVGKRIDMVPELLSSNLCSLVGGVERFAFSCVWEVDNEANVLSKRFHKSVIKSKRAMTYEEAQNIIDDATQQNEIAKSLRNLNRLAKILKKRRMDNGALVLASPEIRFQVDSETHEPLEVEVKQMRETNSMVEEFMLLANITVAEHIATEFSECAVLRRHPRPPPTNFDPLVKSARYQGFQVDINSGLELSHSLDKCVKADNPYFNTMIRILTTRCMMQAVYFISGSLQKEEFFHYGLAAPIYTHFTSPIRRYSDIMVHRLLAASIGADSTYAQLLDRKSNEELCHNLNYRHKMAQYAGRASVALNTHLFFRGKEEDEEGYVLFVRKNALQVLIPKYGLEGTLYLKSDKDGKDGVERVKSEIVFTFNEEDHTQRCGDVVFHSFDPVTVRLSLDSSNVQHEKLIFRLVKPYIKGFSVETTTEGTDSQAVSAAPPSKKTKKDKKKK”, the protein production result was “failed”.

Take “FMPTEKDVKTLQLTMKEYEAKDDWQLYLWKENEDFVGIMGIVKKENQVLEIQHLSVNPSHRHVGIGTKMVQELKSKFLEFTICGNEQTASFCEKC”: the protein production entry is recorded as “failed”. The result for “MKAANSGRTAAALECFERVVKLQSTPVNWSYLAFCVARERQQFEHATRLCEEAVRREPRSSVLYLNLGKVYLLSGRKDDAIRTFRQGLLYERNTLIESELRRLGLRKPPVLNFLAREHPVNKYLGIMLKKLKIRLEHHHHHH” reads “failed”; that for “ISEWARKEQAIRNSEANFRDIFASIKDGLLVLDEDNYICYANAQAVKLLNCTLEELVGTIGSPLEDTEFSLLVDDGTIYTVDVSVTEITWYGQTAKLVSLRDISDRKRMENQLRENQNKYYRLLENLD”, “failed”.

Take “MKIGVLGLQGAVREHVRAIEACGAEAVIVKKSEQLEGLDGLVLPGGESTTMRRLIDRYGLMEPLKQFAAAGKPMFGTCAGLILLAKRIVGYDEPHLGLMDITVERNSFGRQRESFEAELSIKGVGDGFVGVFIRAPHIVEAGDGVDVLATYNDRIVAARQGQFLGCSFHPELTDDHRLMQYFLNMVKEAKMASSLK”: the protein production result was “not failed”.

Regarding “MLEAAQGAPASSGRRTRRPGLSEEVLRAYAYACAFCGYDGMLGRNPVGLEAAHIRWHSQDGPDTLANALALCALHHILFGLGVLGLSPGLRIQVSPLYVARSHAGHAVGILHRRPLAPPRPGHPSPGPEHIHWHHQQVFKHAPTPVAR”, the protein production entry is listed as “failed”.

As for “MSAMGAGPDHLFNLRNNFYLGAYQTAINNSEIANLSPENAVERDCLVFRSYIALGSYQLVISEIDESAATPLQAVKLLAMYLSTPQNKESTISSLKEWLADSTIGNNDTLRLIAGIIFMHEEDYNETLKHTHAGGTMDLYALNVQIFIKMHRAEYAEKQLRVMQQIDEDHTLTQLASAWLNLAVGGSKIQEAYLIFEDFSEKYPMTCLILNGKAVCCMQMGNFDEAETLLLEALNKDAKDPETLANLVVCSLHVGKSSSRHLSQLKLSHPEHILVKRVSSAEDNFERAVQLVA”, the protein production entry is “failed”.

As to “MATLPAAETWIDGGGGVGADAVNLTASLAAGAATGAVETGWLQLLDQAGNLSSSPSALGLPVASPAPSQPWANLTNQFVQPSWRIALWSLAYGVVVAVAVLGNLIVIWIILAHKRMRTVTNYFLVNLAFSDASMAAFNTLVNFIYALHSEWYFGANYCRFQNFFPITAVFASIYSMTAIAVDRYMAIIDPLKPRLSATATKIVIGSIWILAFLLAFPQCLYSKTKVMPGRTLCFVQWPEGPKQHFTYHIIVIILVYCFPLLIMGITYTIVGITLWGGEIPGDTCDKYHEQLKAKRKVVKMMIIVVMTFAICWLPYHIYFILTAIYQQLNRWKYIQQVYLASFWLAMSSTMYNPIIYCCLNKRFRAGFKRAFRWCPFIKVSSYDELELKTTRFHPNRQSSMYTVTRMESMTVVFDPNDADTTRSSRKKRATPRDPSFNGCSRRNSKSASATSSFISSPYTSVDEYS”, the protein production result is “failed”. Consider “MSLIPKFREFDRERHRTDYQKGMSYAEQQDFDMGFTIWFDHIEDLDLIEKDGTINRIVMMSTGLKDKNVKEIYESDIVRNLYGELYVVEWLDGSFVLTEFYNGGYDHYIIDSSTEYEVLGNIYENPELLEDDNHASNEGHHHHHH”, for which the protein production entry is “not failed”. “MNNAMQLLQPYPFKKLRALLGSVTPNPEKRPVALSIGEPKHRSPDFVAKALADNLDQMAVYPTTLGIPALREAIAGWCNRRFGVPQGWIDPARNVLPVNGTREALFAFTQTVVNRSDDGLVVSPNPFYQIYEGAAFLAGAQPHYLPCLSDNGFNPDFDAVDADIWKRCQILFLCSPGNPTGALIPVETLKKLIALADEHDFVIAADECYSELYFDEQTPPPGLLSACVELGRQDFKRCVVFHSLSKRSNLPGLRSGFVAGDAEILKAFLLYRTYHGCAMPVQTQLASIAAWNDEEHVRANRDLYREKFDAVLDILAPVLDVQRPDGGFYLWPNVGTDDAAFCRDLFVDQHVTAVPGSYLSREVDGVNPGAGRVRLALVAPLAECIEAAERIRAFVLK”: the protein production result is “not failed”. On to “MSASLPRTSATALSSTSPLSARDAAPPKRPRFLRGGVAFSLSPNRDNGLVTFRLDTIGTGLVFADSLSNLTAALATQGGGGAAVVQAPPGTGKTTLVPPLLANLVSEQSPGRPRVVVTQPRRVAARSAARRLASLDGSQLGRRVGYTVRGESKVSQDTVVEFVTPGILLRRLLADPGLEDVSAVVLDEVHERGLETDLLVGMLAEVRELRGDITVVAMSATLDAARFATLLGTGLDGGDPAPVVDCPSALYPLKVQWVPAREHRLDARGVSRLFLDHVAHTAATTHAAALAPDADVDALVFLPGAREVSDVATRLRGLVSGNVEVLELHGQIGPEAQDRAVSGREPGGLPRIIVSTSLAESSLTVPGVRVVIDSGLSREPRRDAGRGMSGLVTVSCSRASADQRAGRAARQGPGTVVRCYDQQAYAAAPAHQTPEISVADLTSAALVLACWGAPGGVDLKLPDAPPAAAMNDAVEVLRELGAVTAEGTVTAVGKTLARIPADPRLARALLDGSAVAGRRAAAETVALVAGGQRAPGADLNKLLSALRSGSDPGARRFAEDVQRMETLVRKEAAAVVRPKAAADVTAGEATGLVVALAFPDRVARRVPGDGSTTYLLSSGTRAGLPSGSSLSGHDWLAVAEVSRAQGRDAAGTGAVIRSAATLSAELAEAAAPDLLTEKVEAKFDQGRVMARLERRLGAIVLSSTPVRPTAESGRRAVSEALEKTGLSMIGWSPAADALRRRLALLHRELGSPWPDVREAALLSRLEDWLGPELEAVATGAAVSSINLVDPLRRLLPWPDAARLEDLVPERLEVPSGSRVRIDYPEVSDRSSGDHDDGRPVVAVKLQECFGWDSTPRLLAGRVPVLFHLLSPAGRPLAVTDDLASFWSGPYSQVRAEMRGRYPRHPWPEDPWTAQATAKTKNRM”, for which the protein production entry is given as “failed”. The same measure for “MFTLRELPFAKDSMGDFLSPVAFDFHHGKHHQTYVNNLNNLIKGTDFEKSSLFDILTKSSGGVFNNAAQIYNHDFYWDCLSPKATALSDELKGALEKDFGSLEQFKEDFIKSATTLFGSGWNWVAYNLDTQKIEIIQTSNAQTPVTDKKVPLLVVDVWEHAYYIDHKNARPVYLEKFYEHINWHFVSQCYEWAKKEGLGSVDYYINELVHKKA”: “failed”.

Values taken from a protein production outcome set (Wang et al. 2014).
